Source: EP4499701A1 (dated 2025)

Molecular target: T1, human FGFR2b expressed on cells (human, UniProt P21802-3 22-822)
T1 construct: whole, on cells; Used for the CHOK1 transfectants (FACS), the Ba/F3 cells with full-length human FGFR2b (ADCC) and the receptor on SNU-16 cells (signalling, proliferation); also called hFGFR2b-expressing CHOK1 cells; CHOK1-FGFR2IIIb transfectants
Assay: flow cytometry on CHOK1 cells expressing hFGFR2b

T1 sequence (P21802 other isoform, or with tags, fused parts or gaps): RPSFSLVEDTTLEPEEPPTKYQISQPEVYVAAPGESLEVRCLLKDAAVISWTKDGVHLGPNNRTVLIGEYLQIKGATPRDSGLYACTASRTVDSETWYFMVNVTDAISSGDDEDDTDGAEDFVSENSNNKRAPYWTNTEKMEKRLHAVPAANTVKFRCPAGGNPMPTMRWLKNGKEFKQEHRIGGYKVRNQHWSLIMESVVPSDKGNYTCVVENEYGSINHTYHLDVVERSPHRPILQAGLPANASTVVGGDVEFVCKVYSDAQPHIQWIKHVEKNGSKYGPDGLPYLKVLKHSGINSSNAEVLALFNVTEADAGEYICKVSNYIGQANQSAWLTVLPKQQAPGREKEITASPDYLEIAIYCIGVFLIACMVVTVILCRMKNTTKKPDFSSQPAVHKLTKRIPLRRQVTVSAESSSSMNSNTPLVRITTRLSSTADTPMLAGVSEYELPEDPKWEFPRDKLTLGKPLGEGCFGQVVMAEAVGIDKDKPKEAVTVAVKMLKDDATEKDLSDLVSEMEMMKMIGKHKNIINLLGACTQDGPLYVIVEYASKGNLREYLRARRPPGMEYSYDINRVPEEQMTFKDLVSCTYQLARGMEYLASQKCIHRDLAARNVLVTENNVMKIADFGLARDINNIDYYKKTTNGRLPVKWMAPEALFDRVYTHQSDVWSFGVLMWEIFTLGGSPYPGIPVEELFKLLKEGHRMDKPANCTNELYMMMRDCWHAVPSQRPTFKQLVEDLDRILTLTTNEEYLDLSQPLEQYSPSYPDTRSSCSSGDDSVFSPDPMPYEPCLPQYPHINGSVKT

B1: HC18 (antibody, human IgG1, kappa, V domains shown)
VH: EVQLQQSGTVLARPGASVKMSCKTSGYTFTSYWMHWVKQRPGQGLEWIGSIYPENSDTSYNQKFKGKAKLTAVTSASTAYMDLSSLTNEDSAVYYCSIYHGYDGDYWGQGTTLTVSS
VL: QIVLTQSPAIMSASPGEKVTITCSASSSVSYMYWFQQKPGTSPKLWIYSTSNLASGVPARFSGSGSGTSYSLTISRMEAEDAATYYCQQRSSYPYTFGGGTKLEIKR
notes: also called mAb HC18; the antibody of the present disclosure
  binding result: binds
